The term Kd denotes the concentration at which binding is half-saturated.

Where two headings read alike, the source gives them in different places.

In data set [1] the target is SsoRadA (Saccharolobus solfataricus, UniProt Q55075, K120R). The data set is described as follows: filter binding, saturation binding curve.
In data set [2] the target is T1, SsoRadA (Saccharolobus solfataricus, UniProt Q55075).
T1 sequence (Q55075 1-324): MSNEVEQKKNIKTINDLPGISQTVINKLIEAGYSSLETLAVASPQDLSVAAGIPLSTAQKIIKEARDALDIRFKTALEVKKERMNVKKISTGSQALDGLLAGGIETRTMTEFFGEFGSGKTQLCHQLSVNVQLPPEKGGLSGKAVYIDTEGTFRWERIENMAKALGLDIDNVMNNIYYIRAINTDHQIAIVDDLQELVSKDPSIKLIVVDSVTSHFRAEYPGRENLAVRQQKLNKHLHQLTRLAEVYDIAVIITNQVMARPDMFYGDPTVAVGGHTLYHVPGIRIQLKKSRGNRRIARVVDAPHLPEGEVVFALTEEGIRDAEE
Kind of data set: filter binding, saturation binding curve.

Data set [3] addresses T2, SsoRadA (Sulfolobus solfataricus, UniProt Q55075 1-324).
T2 sequence: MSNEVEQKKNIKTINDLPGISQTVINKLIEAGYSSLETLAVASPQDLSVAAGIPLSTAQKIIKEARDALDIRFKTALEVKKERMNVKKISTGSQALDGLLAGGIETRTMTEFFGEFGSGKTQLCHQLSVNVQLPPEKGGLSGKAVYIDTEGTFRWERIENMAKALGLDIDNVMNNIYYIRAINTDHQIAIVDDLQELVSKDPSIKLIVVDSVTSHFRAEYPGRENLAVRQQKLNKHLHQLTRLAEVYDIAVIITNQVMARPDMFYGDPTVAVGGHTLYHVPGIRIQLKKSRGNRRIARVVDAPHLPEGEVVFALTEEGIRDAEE
The data set is described as follows: EMSA. (In general: A gel shift assay detects complexes by their altered migration in electrophoresis.)

In data set [4] the target is T3, SsoRadA K120A (Sulfolobus solfataricus, UniProt Q55075 1-324, K120A).
T3 sequence: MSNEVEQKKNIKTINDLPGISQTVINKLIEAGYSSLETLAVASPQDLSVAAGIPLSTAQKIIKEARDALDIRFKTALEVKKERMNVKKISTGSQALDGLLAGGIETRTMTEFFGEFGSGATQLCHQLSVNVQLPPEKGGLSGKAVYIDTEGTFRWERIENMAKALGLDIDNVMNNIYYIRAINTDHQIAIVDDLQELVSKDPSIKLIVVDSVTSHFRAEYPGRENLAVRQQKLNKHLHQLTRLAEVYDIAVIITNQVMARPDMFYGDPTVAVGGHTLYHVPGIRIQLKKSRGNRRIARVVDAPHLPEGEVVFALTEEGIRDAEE
Kind of data set: EMSA.

Data set [5] addresses T2, SsoRadA. Kind of data set: EMSA. This is another data set of the same source.
For a further data set, the target named is T4, SsoRadA K120R (Sulfolobus solfataricus, UniProt Q55075 1-324, K120R).
T4 sequence: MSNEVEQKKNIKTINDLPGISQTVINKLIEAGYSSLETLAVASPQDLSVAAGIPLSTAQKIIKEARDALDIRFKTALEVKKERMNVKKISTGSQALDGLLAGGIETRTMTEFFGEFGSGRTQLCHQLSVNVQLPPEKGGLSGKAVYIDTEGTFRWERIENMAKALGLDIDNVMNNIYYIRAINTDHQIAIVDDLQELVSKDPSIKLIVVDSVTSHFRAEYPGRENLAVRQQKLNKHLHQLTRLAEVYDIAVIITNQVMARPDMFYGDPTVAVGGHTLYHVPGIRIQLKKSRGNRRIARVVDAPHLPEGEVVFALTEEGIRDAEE
The data set is described as follows: EMSA.

For data set [6], the target named is T3, SsoRadA K120A. Kind of data set: EMSA. The source holds these as a separate data set.

As to `Nc1ncnc2c1ncn2[C@@H]1O[C@H](COP(=O)(O)OP(=O)(O)OP(=O)(O)O)[C@@H](O)[C@H]1O` [ATP], the Kd amounted to 59.4 ± 9.4 µM at SsoRadA [1] and 2.4 ± 0.6 µM on SsoRadA [2].

B1: 63-mer ssDNA (ssDNA)
DNA: ACAGCACCAATGAAATCTATTAAGCTCCTCATCGTCCGCAAAAATATCGTCACCTCAAAAGGA
For B1, the binding result with SsoRadA [3] and with SsoRadA K120A [4] was “binds” each time.

B2: 63-mer dsDNA (dsDNA)
DNA 1: ACAGCACCAATGAAATCTATTAAGCTCCTCATCGTCCGCAAAAATATCGTCACCTCAAAAGGA
DNA 2: TCCTTTTGAGGTGACGATATTTTTGCGGACGATGAGGAGCTTAATAGATTTCATTGGTGCTGT
Regarding B2, the binding result with SsoRadA [5], with SsoRadA K120R and with SsoRadA K120A [6] was “no binding” in each case.

For the origin of these results see paper PMC4084651 (DNA repair, 2013).
